Patent US20230140293A1

Assays:
Experiment in all cases: cell-based or functional assay
[1] = molecular target: HIV-1 426c.DM (N460D/N463D) Env on Env-pseudotyped virus produced in 293T cells (HIV-1)
[2] = molecular target: HIV-1 Env 426c.SM (N276D), Env-pseudotyped virus produced in 293S GnTI- cells (Man5-enriched) (HIV-1 clade C strain 426c)
[3] = molecular target: CH0505TF.G458Y Env, pseudotyped virus produced in 293S GnTI- cells (HIV-1)
[4] = molecular target: HIV-1 clade C strain 426c Env on Env-pseudotyped virus produced in 293s/GnTI-/- cells (Man5-enrichment) (HIV-1)
[5] = molecular target: CH0505TF Env, pseudotyped virus produced in 293S GnTI- cells (HIV-1)
[6] = molecular target: CH0505TF.gly4 Env, Env-pseudotyped virus produced in 293T cells (HIV-1)
[7] = molecular target: HIV-1 Env 426c.DM (N460D.N463D), Env-pseudotyped virus produced in 293S GnTI- cells (Man5-enriched) (HIV-1 clade C strain 426c)
[8] = molecular target: HIV-1 Env 426c.TM4 (S278R.G471S.N460D.N463D), Env-pseudotyped virus produced in 293S GnTI- cells (Man5-enriched) (HIV-1 clade C strain 426c)
[9] = molecular target: HIV-1 426c.TM (N276D/N460D/N463D) Env on Env-pseudotyped virus produced in 293T cells (HIV-1)
[10] = molecular target: CH0505TF Env, Env-pseudotyped virus produced in 293T cells (HIV-1)
[11] = molecular target: CH0505TF.gly3.197 Env, pseudotyped virus produced in 293S GnTI- cells (HIV-1)
[12] = molecular target: CH0505TF.G458Y Env, Env-pseudotyped virus produced in 293T cells (HIV-1)
[13] = molecular target: HIV-1 CH0505TF.gly3.197 Env on Env-pseudotyped virus produced in 293T cells (HIV-1)
[14] = molecular target: HIV-1 Env 426c, Env-pseudotyped virus produced in 293S GnTI- cells (Man5-enriched) (HIV-1 clade C strain 426c)
[15] = molecular target: HIV-1 Env 426c, Env-pseudotyped virus produced in 293T cells (HIV-1 clade C strain 426c)
[16] = molecular target: HIV-1 Env 426c.TM (N276D.N460D.N463D), Env-pseudotyped virus produced in 293T cells (HIV-1 clade C strain 426c)
[17] = molecular target: HIV-1 CH0505TF.gly4 Env on Env-pseudotyped virus produced in 293S/GnTI-/- cells (Man5-enrichment) (HIV-1)
[18] = molecular target: HIV-1 CH0505TF Env on Env-pseudotyped virus produced in 293S/GnTI-/- cells (Man5-enrichment) (HIV-1)
[19] = molecular target: CH0505.w4.3 Env, pseudotyped virus produced in 293S GnTI- cells (HIV-1)
[20] = molecular target: HIV-1 CH0505TF (CH505 transmitted/founder) Env on Env-pseudotyped virus produced in 293T cells (HIV-1)
[21] = molecular target: CH0505TF.gly4 Env, pseudotyped virus produced in 293S GnTI- cells (HIV-1)
[22] = molecular target: HIV-1 426c.TM (N276D/N460D/N463D) Env on Env-pseudotyped virus produced in 293s/GnTI-/- cells (Man5-enrichment) (HIV-1)
[23] = molecular target: HIV-1 426c.SM (N276D) Env on Env-pseudotyped virus produced in 293s/GnTI-/- cells (Man5-enrichment) (HIV-1)
[24] = molecular target: CH0505.w4.3 Env, Env-pseudotyped virus produced in 293T cells (HIV-1)
[25] = molecular target: CH0505TF.gly3.461 Env, Env-pseudotyped virus produced in 293T cells (HIV-1)
[26] = molecular target: HIV-1 Env 426c.DM (N460D.N463D), Env-pseudotyped virus produced in 293T cells (HIV-1 clade C strain 426c)
[27] = molecular target: HIV-1 CH0505TF.gly3.197 Env on Env-pseudotyped virus produced in 293S/GnTI-/- cells (Man5-enrichment) (HIV-1)
[28] = molecular target: HIV-1 426c.DM (N460D/N463D) Env on Env-pseudotyped virus produced in 293s/GnTI-/- cells (Man5-enrichment) (HIV-1)
[29] = molecular target: HIV-1 clade C strain 426c Env on Env-pseudotyped virus produced in 293T cells (HIV-1)
[30] = molecular target: HIV-1 Env 426c.TM4 (S278R.G471S.N460D.N463D), Env-pseudotyped virus produced in 293T cells (HIV-1 clade C strain 426c)
[31] = molecular target: CH0505TF.gly3.197 Env, Env-pseudotyped virus produced in 293T cells (HIV-1)
[32] = molecular target: CH0505TF.gly3.461 Env, pseudotyped virus produced in 293S GnTI- cells (HIV-1)
[33] = molecular target: CH0505TF.gly3.276 Env, pseudotyped virus produced in 293S GnTI- cells (HIV-1)
[34] = molecular target: HIV-1 CH0505TF.gly4 Env on Env-pseudotyped virus produced in 293T cells (HIV-1)
[35] = molecular target: HIV-1 426c.SM (N276D) Env on Env-pseudotyped virus produced in 293T cells (HIV-1)

| Substance | ID50/IC50 in TZM-bl [1] [µg/mL] | IC50 (µg/ml) in TZM-bl [2] [µg/mL] | IC50 (µg/ml) in TZM-bl [3] [µg/mL] | ID50/IC50 in TZM-bl [4] [µg/mL] | IC50 (µg/ml) in TZM-bl [5] [µg/mL] | IC50 (µg/ml) in TZM-bl [6] [µg/mL] | IC50 (µg/ml) in TZM-bl [7] [µg/mL] | IC50 (µg/ml) in TZM-bl [8] [µg/mL] | ID50/IC50 in TZM-bl [9] [µg/mL] | IC50 (µg/ml) in TZM-bl [10] [µg/mL] | IC50 (µg/ml) in TZM-bl [11] [µg/mL] | IC50 (µg/ml) in TZM-bl [12] [µg/mL] | IC50 (ug/ml) in TZM-bl cells [13] [µg/mL] | IC50 (µg/ml) in TZM-bl [14] [µg/mL] | IC50 (µg/ml) in TZM-bl [15] [µg/mL] | IC50 (µg/ml) in TZM-bl [16] [µg/mL] | IC50 (ug/ml) in TZM-bl cells [17] [µg/mL] | IC50 (ug/ml) in TZM-bl cells [18] [µg/mL] | IC50 (µg/ml) in TZM-bl [19] [µg/mL] | IC50 (ug/ml) in TZM-bl cells [20] [µg/mL] | other results |
| --- | --- | --- | --- | --- | --- | --- | --- | --- | --- | --- | --- | --- | --- | --- | --- | --- | --- | --- | --- | --- | --- |
| CH103 (antibody) | 6.1 | 2.2 | 0.44 | 5.3 | 0.57 | 0.002 | 0.63 | 0.48 | 5.2 | 1.9 | 0.19 | 6.4 | 1.6 | 5.3 | > 40 | 5.2 | 0.005 | 0.67 | 0.18 | 2.6 | IC50 (µg/ml) in TZM-bl [21]: 0.005 µg/mL; ID50/IC50 in TZM-bl [22]: 0.09 µg/mL; ID50/IC50 in TZM-bl [23]: 2.2 µg/mL; IC50 (µg/ml) in TZM-bl [24]: 0.31 µg/mL; IC50 (µg/ml) in TZM-bl [25]: 0.014 µg/mL; IC50 (µg/ml) in TZM-bl [26]: 6.1 µg/mL; IC50 (ug/ml) in TZM-bl cells [27]: 0.19 µg/mL; ID50/IC50 in TZM-bl [28]: 0.63 µg/mL; ID50/IC50 in TZM-bl [29]: > 40 µg/mL; IC50 (µg/ml) in TZM-bl [30]: 3.7 µg/mL; IC50 (µg/ml) in TZM-bl [31]: 1.6 µg/mL; IC50 (µg/ml) in TZM-bl [32]: 0.009 µg/mL; IC50 (µg/ml) in TZM-bl [33]: 0.007 µg/mL; IC50 (ug/ml) in TZM-bl cells [34]: 0.01 µg/mL; ID50/IC50 in TZM-bl [35]: > 40 µg/mL |
| CH235 (antibody) | > 50 | > 25 | < 0.02 | > 25 | 0.03 | 0.022 | > 25 | > 25 | > 50 | 0.3 | 0.006 | 0.1 | 0.16 | > 25 | > 50 | > 50 | 0.004 | 0.03 | 0.03 | 0.35 | IC50 (µg/ml) in TZM-bl cells [3]: < 0.005 µg/mL; IC50 (µg/ml) in TZM-bl [18]: < 0.02 µg/mL; IC50 (µg/ml) in TZM-bl [20]: 0.35 µg/mL; IC50 (µg/ml) in TZM-bl [21]: 0.004 µg/mL; ID50/IC50 in TZM-bl [22]: > 25 µg/mL; ID50/IC50 in TZM-bl [23]: > 25 µg/mL; IC50 (µg/ml) in TZM-bl [24]: 0.4 µg/mL; IC50 (µg/ml) in TZM-bl [25]: 0.086 µg/mL; IC50 (µg/ml) in TZM-bl [26]: > 50 µg/mL; IC50 (ug/ml) in TZM-bl cells [27]: 0.006 µg/mL; ID50/IC50 in TZM-bl [28]: > 25 µg/mL; ID50/IC50 in TZM-bl [29]: > 50 µg/mL; IC50 (µg/ml) in TZM-bl [30]: > 25 µg/mL; IC50 (µg/ml) in TZM-bl [31]: 0.16 µg/mL; IC50 (µg/ml) in TZM-bl [32]: 0.011 µg/mL; IC50 (µg/ml) in TZM-bl [33]: 0.02 µg/mL; IC50 (ug/ml) in TZM-bl cells [34]: 0.022 µg/mL; ID50/IC50 in TZM-bl [35]: > 50 µg/mL |
